B1: LINE1-full (parent)
chain: UACGUAGGUGGUUUUCCCCUGAUAGUGCUAAGGGGGCCUGGAAGUUUGGACUGGGCAGAGCUCAACACAGCGUGGCAAAGUGGCUGUGGCUAGACUGCCUCUCUGGAUUCCUCGUCACUCAGCAGGGCAUCUCUGAGAGAAAUGCC

Variants of: B1
Assay: self-cleavage, relative activity (ratio to wild type); higher = more cleavage; in vitro, sequencing; the parent is a self-cleaving ribozyme
Variant UACGUAGGUGGUUUUCCCCUGAUAGUGCUAAGGGGGCCUGGAAGUUUGGACUGGGCAGAGCUCAACACAGCGUGGCAAAGUGGCUGUGGCUUGACUGCCUCUCUGGAUUCCUCGUCACUCAGCAGGGCAUCUCUGAGAAAAAUGCC [A92U G139A] has a self-cleavage of 0.76.
Variant UACGUAGGUGGUUUUCCCCUGUUAGUGCUAAGGGGGCCUGGAAGUUUGGACUGGGCAGGGCUCAACACAGCGUGGCAAAGUGGCUGUGGCUAGACUGCCUCUCUGGAUUCCUCGUCACUCAGCAGGGCAUCUCUGAGAGAAAUGCC [A22U A59G] has a self-cleavage of 0.07.
For UACGUAGGUGGUUUUCCCCUGAUAGUGCUAAGGGGGCCUGGAAGUCUGGACUGGGCAGAGCUCAACACAGCGUGGCAAAGUGGCUGUGGCUAGACUGCCUCUCUGGAUUCCUCGUCACUCAGCAGGGCCUCUCUGAGAGAAAUGCC [U46C A129C], the self-cleavage was 1.99.
Variant UACGUAGGUGGUAUUCCCCUGAUGGUGCUAAGGGGGCCUGGAAGUUUGGACUGGGCAGAGCUCAACACAGCGUGGCAAAGUGGCUGUGGCUAGACUGCCUCUCUGGAUUCCUCGUCACUCAGCAGGGCAUCUCUGAGAGAAAUGCC [U13A A24G] has a self-cleavage of 0.53.
UACGUAGGUGGUUCUCCCCUGAUAGUGCUAAGGGGGCCUGGAAGUUUGGACUGGGCAGAGCUCAACACAGCGUGGCAAAGUGGCUGUGGCUAGACUGCCUCUCUGGAUUCCUCGUCACUCAGCAGGGCAUCUCUGAGAGAAAUGAC [U14C C145A] gave a self-cleavage of 1.28.
With UACGUAGGUGGUUUUCCCCUGAUAGUGCUAAGGGGGCCUGGAUGUUUGGACUGGGCAGAGCUCAACACAGCGUGGCAAAGUGGCUGUGGCUAGUCUGCCUCUCUGGAUUCCUCGUCACUCAGCAGGGCAUCUCUGAGAGAAAUGCC [A43U A94U] the self-cleavage was 0.24.
Variant UACGUAGGUGGUUUUCCCCUGAUAGUGCUAAGGGGGCCUGGAAGUUUGGACUGGGCAGAGCUCAACACAGCGUGGCAAAGUGGCUGUGGCUAGACUGCCUCUCUGGAUUCCUCGUCACACAGCAGGGCACCUCUGAGAGAAAUGCC [U119A U130C] has a self-cleavage of 1.85.
Variant UACGUAGGUGGUUUUCCCCUGAUAGUGCUAAGGGGGCCUGGAAGUUUGGACUGGGCAGAGCUCAACACAGCGUGGCAAAGUGGCUGUGGCUAGACUGCCCCUCUGGAUUCCUCGCCACUCAGCAGGGCAUCUCUGAGAGAAAUGCC [U100C U115C] has a self-cleavage of 2.98.
Work on UACGUAGGUGGUUUUCCCCUGAUAGUGCUAAGGGGGCCUGGAAGUUUGGACUGGGCAGAGCUCAACACAGCGUGGCAAAGUGGAUGUGGCCAGACUGCCUCUCUGGAUUCCUCGUCACUCAGCAGGGCAUCUCUGAGAGAAAUGCC [C84A U91C] yielded a self-cleavage of 0.13.
UACGAAGGUGGUUUUCCCCUGAUAGUGCUAAGGGGGCCUGGAAGUUUGGACUGGGCAGAGCUCAACACAGCGUGGCAAAGUGGCUGUGGCUAGACUGCCUCUCUGGAUUCCUCGUCACUCAGCAGGGCAUCUCUGAGAGAGAUGCC [U5A A141G] showed a self-cleavage of 1.23.
UACGUAGGUGGUUUUCCCCUGAUAGUGCUAAGGAGGCCUGGAAGUUUGGACUGGGCAGAGCCCAACACAGCGUGGCAAAGUGGCUGUGGCUAGACUGCCUCUCUGGAUUCCUCGUCACUCAGCAGGGCAUCUCUGAGAGAAAUGCC [G34A U62C] showed a self-cleavage of 0.02.
In the case of UACGUAGGUGGUUUUCCCCUGAUAGUGCUAAGGGGGCCUGGUAGUUUGGACUGGUCAGAGCUCAACACAGCGUGGCAAAGUGGCUGUGGCUAGACUGCCUCUCUGGAUUCCUCGUCACUCAGCAGGGCAUCUCUGAGAGAAAUGCC [A42U G55U], the self-cleavage is reported as 0.1.
Work on UACGUAGGUGGUUUCCCCCUGAUAGUGCUAAGGGGGCCUGGAAGUUUGGACUGGGCAGAGCUCAACACAGCGUGGCAAAGUGGCUGUGGCAAGACUGCCUCUCUGGAUUCCUCGUCACUCAGCAGGGCAUCUCUGAGAGAAAUGCC [U15C U91A] yielded a self-cleavage of 0.81.
In the case of UACGUAGGUGGUUUUCCCCUGAUAGUGCUAAGGGGGCCUGGAAGUUUGGACUGGGCAGAGCUCAACACAGCGUGGCAAAGUGGCUGUGGCUAGACUGCCUCUCUGGAUUCCUCGCCACUCAGCCGGGCAUCUCUGAGAGAAAUGCC [U115C A124C], the self-cleavage is reported as 2.09.
Variant UACGUAGGUGGUUAUCCCCUGAUAGUGCUAAGGGGGCCUGGAAGUUUGGACUGGGCAGAGCUCAACACAGCGUGGCAAAGUGGCUGUGGCUAGACUGCCUCUCUGGAUUCCUCGUCACACAGCAGGGCAUCUCUGAGAGAAAUGCC [U14A U119A] has a self-cleavage of 1.02.
UACGUAGGUGGUUUUCCCCUGAUAGUGCUAAGGGGGCCUGGAAGUUUGGACUGGGCAGAGCUCAACACAGCGUGGCAAAGUGGCUGUGGCUAGACUGCCACUCUGGAUUCCUCGUCACUCAGCAGGGCAUCUCUGAGAGAAACGCC [U100A U143C] gave a self-cleavage of 0.86.
UACGUAGGUGGUUUUCCCCUGAUAGUGCUAAGGGGGCCUGGAAGUUUGGACUGGGCAGAGCUCAACACAGCGUGGCAAAGUGGCUGUGGCUAGACCGCCUCUCUGGAUUCCUCGUCACUCAGCAGGGCAUCUCUGAGAGUAAUGCC [U96C A140U] gave a self-cleavage of 0.14.
Variant UACGUAGGUGGUUUUCCCCUGAUAGUGCUAAGGGGGCCUGGAAGUUUGGACUGGGCAGAGCUCAACACAGCGUGGCAAAGUGGCUGUGGCUAGACUACCUCUCUGGAUUCCUCGUCACUCAGCAGGGCAUCUCUGAGAGAAGUGCC [G97A A142G] has a self-cleavage of 0.02.
In the case of UACGUAGGUGGUUUUCCCCUGAUAGUGCUAAGGGGGCCUGGAAGUUUGGACUGGGCAGAGCUCAACACAGCGUGGCAAAGUGGCUGUGGCUAGAUUGCCUCUCUGGGUUCCUCGUCACUCAGCAGGGCAUCUCUGAGAGAAAUGCC [C95U A107G], the self-cleavage is reported as 0.21.
With UACGUAGGUGGUUUUCCCCUGAUAGUGCUAAGGGGGCCUGGAAGUUUGGACUGGGCAGGGCUCAACACAGCGUGGCAAAAUGGCUGUGGCUAGACUGCCUCUCUGGAUUCCUCGUCACUCAGCAGGGCAUCUCUGAGAGAAAUGCC [A59G G80A] the self-cleavage was 0.08.
UACGUAGGUGGUUUUCCCCUGAUAGUGCUAAGGGGGCCUGGAAGUUUGGACUGGGCAGAGCUCAACACAGCGUGGCAAAGUGGCUGUGGCUAGACCGCCUCUCUGGAUUCCUCGUCACUCAGCAGGGCAUCUCUGGGAGAAAUGCC [U96C A136G] gave a self-cleavage of 0.15.
In the case of UACGUAGGUGGUUUUCCCCUGAUAGUGCUAAGGGGGCCUGGAAGUUUGGACUGGGCAGAGCUCAACACAGCGUGGCAAAGAGGCUGUGGCUAGACUGCCUCUCUGGAUUCCUCGUCACUCAGCAGGGCAUCUUUGAGAGAAAUGCC [U81A C133U], the self-cleavage is reported as 1.95.
For UACGUAGGUGGUUUUCCCCUGAUAGUGCUAAGGGGGCCUGGAAGUUUGGACUGGGCAGAGCUCAACACAGCGUGGCAAAGUGGCUGUGGCUAGACUGUCUCUCUCGAUUCCUCGUCACUCAGCAGGGCAUCUCUGAGAGAAAUGCC [C98U G105C], the self-cleavage was 0.75.
UACGUAGGUGGUUUUCCCCUGAUAGUGCUAAGGGGGCCUGGAAGUUUGGACUGGGCAGAGCUCAACACAGCGUGGCAAAGUGGCUGUGGCUAGACUGCCUCUCUGGAUUCCUCGUUACUCAGCAGGGCAUCUCCGAGAGAAAUGCC [C116U U134C] gave a self-cleavage of 1.11.
For UACGUAGGUGGUCUUCCCCUGAUAGUGCUAAGGGGGCCUGGAAGUUUGGACUGGGCAGAGCUCAACACAGAGUGGCAAAGUGGCUGUGGCUAGACUGCCUCUCUGGAUUCCUCGUCACUCAGCAGGGCAUCUCUGAGAGAAAUGCC [U13C C71A], the self-cleavage was 0.24.
In the case of UACGUAGGUGGUUUUCCCCUGAUAGUGCUAAGGGGGCCUGGGUGUUUGGACUGGGCAGAGCUCAACACAGCGUGGCAAAGUGGCUGUGGCUAGACUGCCUCUCUGGAUUCCUCGUCACUCAGCAGGGCAUCUCUGAGAGAAAUGCC [A42G A43U], the self-cleavage is reported as 1.56.
In the case of UACGUAGGUGGUUUUCCCCUGAUAGUGCUAAGGGGGCCUGGAAGUUUGGACUGGGCAGAGCUCAACACAGCGUGGCGAAGUGGCUGUGGCUAGACUGCCUCUCUGAAUUCCUCGUCACUCAGCAGGGCAUCUCUGAGAGAAAUGCC [A77G G106A], the self-cleavage is reported as 2.
For UACGUAGGUGGUUUUCCCCUGAUAGUGCUAAGUGGGCCUGGAAGUUUGGACUGGGCAGAGCUCAACACAGCGUAGCAAAGUGGCUGUGGCUAGACUGCCUCUCUGGAUUCCUCGUCACUCAGCAGGGCAUCUCUGAGAGAAAUGCC [G33U G74A], the self-cleavage was 0.88.
With UACGUAGGUGGUUUUCCCCUGAUAGUGCUAGGGGGGCCUGGAAGUUUGGACUGGGCAGAGCUCAACACAGCGUGGCAAAGUGGCUGCGGCUAGACUGCCUCUCUGGAUUCCUCGUCACUCAGCAGGGCAUCUCUGAGAGAAAUGCC [A31G U87C] the self-cleavage was 0.22.
For UACGUAGGUGGUUUUCCCCUGAUAGUGCUAAGGGGGCCUGGAAGUUUGGACUGGGCAGAGCUCAACACAGCGUGGCAAAGUGGCUGUGGCUAGACUGCCUCUCUGGAUUCCUCCUCACUCAGCAGGGCAUCUCUGAGGGAAAUGCC [G114C A138G], the self-cleavage was 1.41.
UACGUAGGUGGUUUUCCCCUGAUAGUGCUAAGGGGGCUUGGAAGUUUGGACUGGGCAGAGCUCAACACAGCGUGGCAAAGUGGCUGUGGCUAGACUGCCCCUCUGGAUUCCUCGUCACUCAGCAGGGCAUCUCUGAGAGAAAUGCC [C38U U100C] gave a self-cleavage of 1.9.
With UACGUAGGUGGUUUUCCCCUGAUAGUGCUAAGGGGGCCUGGAAGUUUGGACUGGGCAGAGCUCAACACAGCGUGGCAAAGCGGCUGUGGCUAGACUGCCUCUCUGGAUUCCUCGUCACUCAGCAGGGCAUCUCUGAGAGAAAUGCC [U81C] the self-cleavage was 1.37.
For UACGUAGGUGGUUUUCCCCUGAUAGUGCUAAGGGGGCCUGGAAGUAAGGACUGGGCAGAGCUCAACACAGCGUGGCAAAGUGGCUGUGGCUAGACUGCCUCUCUGGAUUCCUCGUCACUCAGCAGGGCAUCUCUGAGAGAAAUGCC [U46A U47A], the self-cleavage was 1.09.
UACGUAGGUGGUUUUCCCCUGAUAGUGCUAAGGGGGCCUGGAAGUUUGGACUGGGCAGAGCUCAGCACAGCGUGGCAAAGUGGCUGUGGCUAGACUGCCUCUCUGGAUUCCUCGUCACUCAGCAGGGCAUCUCUGAGAGACAUGCC [A65G A141C] showed a self-cleavage of 0.38.
With UACGUAGGUGGUUUUCCCCUGAAAGUGCUAAGGGGGCCUGGAAGUUUGGACUGGGCAGAGCUCAACACAGCGUGGCAAAGUGGCUGUGGCUAGACUGCCUCUCUGGAUUCCUCGUCACUCAGCAGGGCAUCUCUGAGAGGAAUGCC [U23A A140G] the self-cleavage was 1.41.
With UACGUAGGUGGUUUUCCCCUGAUAGUGCUAAGGGGGCCUGGAAGUUUGGACUGGGCAGAGCUCAACACAGCGUGGCUAAGUGGCUGUGGCUAGACUGCCUCUCUGGAUUCCUCGUCACUCAGCAGGGCAACUCUGAGAGAAAUGCC [A77U U130A] the self-cleavage was 1.01.
With UACGUAGGUGGUUUUCCCCUGAUAGUGCUAAGGGGGCCUGGAAGUUUGGACUGGGCAGAGCUCUACACAGCGUGGCAAAGUGGCAGUGGCUAGACUGCCUCUCUGGAUUCCUCGUCACUCAGCAGGGCAUCUCUGAGAGAAAUGCC [A64U U85A] the self-cleavage was 0.06.
Variant UACGUAGGUGGUUUUCCCCUGAUAGUGCUAAGGGGGCCUGGAAGUUUGGGCUGGGCAGAGCUCAACACAGCGUGGCAAAUUGGCUGUGGCUAGACUGCCUCUCUGGAUUCCUCGUCACUCAGCAGGGCAUCUCUGAGAGAAAUGCC [A50G G80U] has a self-cleavage of 0.35.
UACGUAGGUGGUUUUCCCCUGAUAGCGCUAAGGGGGCCUGGAAGUUUGGACUGGGCAGAGCUCAACACCGCGUGGCAAAGUGGCUGUGGCUAGACUGCCUCUCUGGAUUCCUCGUCACUCAGCAGGGCAUCUCUGAGAGAAAUGCC [U26C A69C] showed a self-cleavage of 0.08.

— the RNAGym collection of RNA variant scans (doi:10.7554/elife.90254)
